Read-outs that look alike come from different tables or passages of the source.
What was measured:
[1] = target: NGF (species not stated) (Homo sapiens (Human)) (UniProt P01138); test: SPR, Biacore 8K; captured on Protein A chip, NGF in solution (the table does not say human or rat)
[2] = target: NGF (species not stated) (Homo sapiens (Human)) (UniProt P01138); test: cell-based or functional assay
[3] = target: T1, human Nerve Growth Factor (human, UniProt P01138 122-241); test: cell-based or functional assay
T1 sequence (P01138 122-241 limits assumed): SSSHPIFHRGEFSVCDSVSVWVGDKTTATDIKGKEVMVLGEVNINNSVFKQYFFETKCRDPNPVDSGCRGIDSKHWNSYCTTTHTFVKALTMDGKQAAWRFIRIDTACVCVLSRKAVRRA

[4] = target: T1, human Nerve Growth Factor; test: SPR, Biacore 8K; captured on Protein A chip, hNGF in solution, multi-cycle kinetics
[5] = target: NGF (species not stated) (Homo sapiens (Human)) (UniProt P01138); test: cell-based or functional assay; remark: listed apart in the source

“PetML308 (Human p75NTR ECD full stalk IgG1) (Fc fusion)” was tested. Which Kd [1] did it give?
The Kd was 8.78 nM.

What about the Bottom (%), best-fit values, PathHunter TrkA activation assay [2] of the same molecule?
The Bottom (%), best-fit values, PathHunter TrkA activation assay was 44.5%.

And the IC50 (nM), PathHunter TrkA activation assay [2]?
Its IC50 (nM), PathHunter TrkA activation assay is 282 nM.

And the Top (%), best-fit values, PathHunter TrkA activation assay [2]?
Its Top (%), best-fit values, PathHunter TrkA activation assay is 105%.

“PetML319 (Human p75NTR ECD no stalk IgG1) (Fc fusion)” was tested. Which Kd [1] did it give?
Its Kd is 0.358 nM.

What about the Bottom (%), best-fit values, PathHunter TrkA activation assay [2] of the same molecule?
Its Bottom (%), best-fit values, PathHunter TrkA activation assay is 9.5%.

And the IC50 (nM), PathHunter TrkA activation assay [2]?
Its IC50 (nM), PathHunter TrkA activation assay is 8.04 nM.

B1: Bedinvetmab (antibody, V domains shown)
VH: EVQLVESGGDLVKPGGSLRLSCVASGFTFSSHGMHWVRQSPGKGLQWVAVINSGGSSTYYTDAVKGRFTISRDNAKNTVYLQMNSLRAEDTAMYYCAKESVGGWEQLVGPHFDYWGQGTLVIVSS
VL: QSVLTQPTSVSGSLGQRVTISCSGSTNNIGILGASWYQLFPGKAPKLLVYGNGNRPSGVPDRFSGADSGDSVTLTITGLQAEDEADYYCQSFDTTLGAHVFGGGTHLTVL
For B1, which “IC50 (nM), TF-1 cell proliferation inhibition” value [3] is on record?
Its value is 0.89 nM.

And the “ICMAX (%), TF-1 cell proliferation inhibition” value [3]?
The value was 96.8%.

And the Kd [4]?
Its Kd is 0.0073 nM.

And the Kd [1]?
The Kd was 0.0073 nM.

And the Bottom (%), best-fit values, PathHunter TrkA activation assay [2]?
Its Bottom (%), best-fit values, PathHunter TrkA activation assay is 2.11%.

And the IC50 (nM), PathHunter TrkA activation assay [2]?
The IC50 (nM), PathHunter TrkA activation assay was 1.14 nM.

And the Top (%), best-fit values, PathHunter TrkA activation assay [2]?
Its Top (%), best-fit values, PathHunter TrkA activation assay is 93.5%.

And the Bottom (%), best-fit, PathHunter TrkA activation assay [5]?
Its Bottom (%), best-fit, PathHunter TrkA activation assay is 5.35%.

What about the IC50 (nM), PathHunter TrkA activation assay [5] of the same molecule?
The IC50 (nM), PathHunter TrkA activation assay was 4.24 nM.

And the Top (%), best-fit, PathHunter TrkA activation assay [5]?
Its Top (%), best-fit, PathHunter TrkA activation assay is 123%.

What about the maximal TrkA inhibition, PathHunter TrkA activation assay [5] of the same molecule?
The maximal TrkA inhibition, PathHunter TrkA activation assay was 100%.

Source: patent US20240270817A1 (PETMEDIX, published 2024)
